Data reported in paper PMC6629641, “DNA translocation mechanism of the MCM complex and implications for replication initiation” (Nature Communications, 2019).

What was measured:
[1] = molecular target: the molecule itself; test: crystal structure; SsoMCM-GGSGGS-ΔC with a 12-mer oligonucleotide, magnesium, ADP and beryllium fluoride; hanging drop, 18 °C, 50 mM MES pH 6.0, 100 mM NaCl, 20 mM MgCl2, 9% PEG 8000; 3.15 Å
[2] = molecular target: the molecule itself; test: SEC; last gel-filtration step after removal of the SUMO tag and anion exchange; oligomer judged from the elution volume

Row | Protein | stoichiometry N [1] | stoichiometry N [2]
1 | SsoMCM-GGSGGS-ΔC (enzyme, Sulfolobus solfataricus, UniProt Q9UXG1 1-612, looked up, minichromosome maintenance (MCM) protein of Sulfolobus solfataricus, cut after amino acid 612 (the C-terminal HTH domain deleted); Homohexamer; crystallised with a 12-mer ssDNA, Mg2+, ADP and ADP-BeF3; also called nearly full-length SsoMCM; MCM hexamer; source: E. coli BL21(DE3)-RIPL, purified (Ni-NTA, size-exclusion, Ulp1 cleavage, anion exchange, gel filtration); not shown: His6, N-terminal, …) MEIPSKQIDYRDVFIEFLTTFKGNNNQNKYIERINELVAYRKKSLIIEFSDVLSFNENLAYEIINNTKIILPILEGALYDHILQLDPTYQRDIEKVHVRIVGIPRVIELRKIRSTDIGKLITIDGILVKVTPVKERIYKATYKHIHPDCMQEFEWPEDEEMPEVLEMPTICPKCGKPGQFRLIPEKTKLIDWQKAVIQERPEEVPSGQLPRQLEIILEDDLVDSARPGDRVKVTGILDIKQDSPVKRGSRAVFDIYMKVSSIEVSGGSGGSSEEDEKKIKDLAKDPWIRDRIISSIAPSIYGHWELKEALALALFGGVPKVLEDTRIRGDIHILIIGDPGTAKSQMLQFISRVAPRAVYTTGKGSTAAGLTAAVVREKGTGEYYLEAGALVLADGGIAVIDEIDKMRDEDRVAIHEAMEQQTVSIAKAGIVAKLNARAAVIAAGNPKFGRYISERPVSDNINLPPTILSRFDLIFILKDQPGEQDRELANYILDVHSGKSTKNIIDIDTLRKYIAYARKYVTPKITSEAKNLITDFFVEMRKKSSETPDSPILITPRQLEALIRISEAYAKMALKAEVTREDAERAINIMRLFLESVGVDMESGKIDID | 6 | 
2 | wild-type full-length SsoMCM (enzyme, Sulfolobus solfataricus, UniProt Q9UXG1 1-686, looked up, minichromosome maintenance (MCM) protein of Sulfolobus solfataricus, full length; also called pEE045.1; source: E. coli BL21(DE3)-RIPL, purified (Ni-NTA, size-exclusion, Ulp1 cleavage, anion exchange, gel filtration); not shown: His6, N-terminal, cleaved; SUMO, N-terminal, cleaved) MEIPSKQIDYRDVFIEFLTTFKGNNNQNKYIERINELVAYRKKSLIIEFSDVLSFNENLAYEIINNTKIILPILEGALYDHILQLDPTYQRDIEKVHVRIVGIPRVIELRKIRSTDIGKLITIDGILVKVTPVKERIYKATYKHIHPDCMQEFEWPEDEEMPEVLEMPTICPKCGKPGQFRLIPEKTKLIDWQKAVIQERPEEVPSGQLPRQLEIILEDDLVDSARPGDRVKVTGILDIKQDSPVKRGSRAVFDIYMKVSSIEVSQKVLDEVIISEEDEKKIKDLAKDPWIRDRIISSIAPSIYGHWELKEALALALFGGVPKVLEDTRIRGDIHILIIGDPGTAKSQMLQFISRVAPRAVYTTGKGSTAAGLTAAVVREKGTGEYYLEAGALVLADGGIAVIDEIDKMRDEDRVAIHEAMEQQTVSIAKAGIVAKLNARAAVIAAGNPKFGRYISERPVSDNINLPPTILSRFDLIFILKDQPGEQDRELANYILDVHSGKSTKNIIDIDTLRKYIAYARKYVTPKITSEAKNLITDFFVEMRKKSSETPDSPILITPRQLEALIRISEAYAKMALKAEVTREDAERAINIMRLFLESVGVDMESGKIDIDTIMTGKPKSAREKMMKIIEIIDSLAVSSECAKVKDILKEAQQVGIEKSNIEKLLTDMRKSGIIYEAKPECYKKV |  | 6
